System: retinal ganglion cells (RGCs)
Test: RGC loss after intraocular injection of α2 macroglobulin protein in normal eyes
Type: in vivo, rat
Procedure: RGCs were labeled with 3% DII (1,1-dioctadecyl-3,3,3,3-tetramethylindocarbocyanine perchlorate) or with 3% fluorogold. Briefly, Wistar rats were anesthetized and their heads were mounted in a stereotactic apparatus.
7 days after dye injection, the vasculature of the rats were perfused-fixed (transcardiac perfusion in phosphate-buffer (PB), followed by 4% PFA in PB) and the eyes were enucleated. After post-fixing for 1 hour cuts were made through the sclera to form a Maltese cross pattern and retinas detached from the eyecup at the optic nerve head. The retinas were flat-mounted on glass slides (vitreous side up) air-dried and cover-slipped with mounting medium (Molecular Probes). The retinas were observed under fluorescence microscopy (Zeiss). […] RGCs were recognized in flat mounted retinas by the presence of retrogradely transported dye and by morphology. RGCs in all 4 quadrants (16 images per retina) were averaged and presented as […] of area counted.
To evaluate the potential role of α2 macroglobulin in the death of RGCs, α2 macrobglobulin protein was microinjected in normal eyes to determine whether glaucoma-like RGC death ensued. In this paradigm, a total of 1-2 μg of α2 macroglobulin were delivered by a single intraocular injection in normal eyes, and surviving RGCs were counted at days 14 or 28 post-injection, by retrograde labeling. […]

B1: α2m: α2 macroglobulin protein injected intraocularly into normal rat eyes (protein, UniProt P06238 28-1472, looked up)
Alpha-2-macroglobulin: SAPQKPIYMVMVPSLLHAGTPEKACFLFSHLNETVAVRVSLESVRGNQSLFTDLVVDKDLFHCTSFTVPQSSSDEVMFFTVQVKGATHEFRRRSTVLVKKKESLVFAQTDKPIYKPGQTVRFRVVSLDESFHPLNELIPLLYIQDPKNNRIAQWQNFNLEGGLKQLSFPLSSEPTQGSYKVVIRTESGRTVEHPFSVEEFVLPKFEVRVTVPETITILEEEMNVSVCGIYTYGKPVPGRVTVNICRKYSNPSNCFGEESVAFCEKLSQQLDGRGCFSQLVKTKSFQLKRQEYEMQLDVHAKIQEEGTGVEETGKGLTKITRTITKLSFVNVDSHFRQGIPFVGQVLLVDGRGTPIPYETIFIGADEANLYINTTTDKHGLARFSINTDDIMGTSLTVRAKYKDSNACYGFRWLTEENVEAWHTAYAVFSPSRSFLHLESLPDKLRCDQTLEVQAHYILNGEAMQELKELVFYYLMMAKGGIVRAGTHVLPLKQGQMRGHFSILISMETDLAPVARLVLYAILPNGEVVGDTAKYEIENCLANKVDLVFRPNSGLPATRALLSVMASPQSLCGLRAVDQSVLLMKPETELSASLIYDLLPVKDLTGFPQGADQREEDTNGCVKQNDTYINGILYSPVQNTNEEDMYGFLKDMGLKVFTNSNIRKPKVCERLRDNKGIPAAYHLVSQSHMDAFLESSESPTETRRSYFPETWIWDLVVVDSAGVAEVEVTVPDTITEWKAGAFCLSNDTGLGLSPVVQFQAFQPFFVELTMPYSVIRGEAFTLKATVLNYLPTCIRVAVQLEASPDFLAAPEEKEQRSHCICMNQRHTASWAVIPKSLGNVNFTVSAEALNSKELCGNEVPVVPEQGKKDTIIKSLLVEPEGLENEVTFNSLLCPMGAEVSELIALKLPSDVVEESARASVTVLGDILGSAMQNTQDLLKMPYGCGEQNMVLFAPNIYVLDYLNETQQLTQEIKTKAIAYLNTGYQRQLNYKHRDGSYSTFGDKPGRNHANTWLTAFVLKSFAQARKYIFIDEVHITQALLWLSQQQKDNGCFRSSGSLLNNAMKGGVEDEVTLSAYITIALLEMSLPVTHPVVRNALFCLDTAWKSARGGAGGSHVYTKALLAYAFALAGNQDTKKEILKSLDEEAVKEEDSVHWTRPQKPSVSVALWYQPQAPSAEVEMTAYVLLAYLTTEPAPTQEDLTAAMLIVKWLTKQQNSHGGFSSTQDTVVALHALSKYGSATFTRAKKAAQVTIHSSGTFSTKFQVNNNNQLLLQRVTLPTVPGDYTVKVTGEGCVYLQTSLKYSVLPREEEFPFTVVVQTLPGTCEDPKAHTSFQISLNISYTGSRSESNMAIADVKMVSGFIPLKPTVKMLERSVHVSRTEVSNNHVLIYLDKVSNQTVNLSFTVQQDIPIRDLKPAVVKVYDYYEKDEFAVAKYSAPCSTDYGNA
RGC losses compared to vehicle PBS (2 weeks after single intraocular injection of 1-2 μg in normal eyes): 11±3% | RGC losses compared to vehicle PBS (4 weeks after single intraocular injection of 1-2 μg in normal eyes): 28±11%
